{
  "source": "paper doi:10.1101/2024.05.21.594841",
  "about": "(bioRxiv, 2024)",
  "key": {"Pdi1p": {"biological_target": "T1, Pdi1p (S. cerevisiae, UniProt P17967 29-522)", "T1 sequence": "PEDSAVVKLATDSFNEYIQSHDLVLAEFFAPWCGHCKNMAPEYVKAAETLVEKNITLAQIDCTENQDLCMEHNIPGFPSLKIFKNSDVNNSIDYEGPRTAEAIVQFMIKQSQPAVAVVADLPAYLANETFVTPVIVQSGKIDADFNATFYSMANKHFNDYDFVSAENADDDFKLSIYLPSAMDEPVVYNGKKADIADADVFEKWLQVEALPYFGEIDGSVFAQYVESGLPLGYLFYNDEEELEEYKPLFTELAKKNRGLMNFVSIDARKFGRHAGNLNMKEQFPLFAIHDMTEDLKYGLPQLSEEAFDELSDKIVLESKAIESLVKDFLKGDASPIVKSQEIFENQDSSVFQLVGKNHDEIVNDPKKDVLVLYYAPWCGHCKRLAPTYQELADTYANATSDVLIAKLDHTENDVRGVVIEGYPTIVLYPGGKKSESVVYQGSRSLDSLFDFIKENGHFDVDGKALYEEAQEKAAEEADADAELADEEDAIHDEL", "experiment": "split reporter"}, "Kre5p": {"biological_target": "T2, Kre5p (S. cerevisiae, UniProt P22023 18-1365)", "T2 sequence": "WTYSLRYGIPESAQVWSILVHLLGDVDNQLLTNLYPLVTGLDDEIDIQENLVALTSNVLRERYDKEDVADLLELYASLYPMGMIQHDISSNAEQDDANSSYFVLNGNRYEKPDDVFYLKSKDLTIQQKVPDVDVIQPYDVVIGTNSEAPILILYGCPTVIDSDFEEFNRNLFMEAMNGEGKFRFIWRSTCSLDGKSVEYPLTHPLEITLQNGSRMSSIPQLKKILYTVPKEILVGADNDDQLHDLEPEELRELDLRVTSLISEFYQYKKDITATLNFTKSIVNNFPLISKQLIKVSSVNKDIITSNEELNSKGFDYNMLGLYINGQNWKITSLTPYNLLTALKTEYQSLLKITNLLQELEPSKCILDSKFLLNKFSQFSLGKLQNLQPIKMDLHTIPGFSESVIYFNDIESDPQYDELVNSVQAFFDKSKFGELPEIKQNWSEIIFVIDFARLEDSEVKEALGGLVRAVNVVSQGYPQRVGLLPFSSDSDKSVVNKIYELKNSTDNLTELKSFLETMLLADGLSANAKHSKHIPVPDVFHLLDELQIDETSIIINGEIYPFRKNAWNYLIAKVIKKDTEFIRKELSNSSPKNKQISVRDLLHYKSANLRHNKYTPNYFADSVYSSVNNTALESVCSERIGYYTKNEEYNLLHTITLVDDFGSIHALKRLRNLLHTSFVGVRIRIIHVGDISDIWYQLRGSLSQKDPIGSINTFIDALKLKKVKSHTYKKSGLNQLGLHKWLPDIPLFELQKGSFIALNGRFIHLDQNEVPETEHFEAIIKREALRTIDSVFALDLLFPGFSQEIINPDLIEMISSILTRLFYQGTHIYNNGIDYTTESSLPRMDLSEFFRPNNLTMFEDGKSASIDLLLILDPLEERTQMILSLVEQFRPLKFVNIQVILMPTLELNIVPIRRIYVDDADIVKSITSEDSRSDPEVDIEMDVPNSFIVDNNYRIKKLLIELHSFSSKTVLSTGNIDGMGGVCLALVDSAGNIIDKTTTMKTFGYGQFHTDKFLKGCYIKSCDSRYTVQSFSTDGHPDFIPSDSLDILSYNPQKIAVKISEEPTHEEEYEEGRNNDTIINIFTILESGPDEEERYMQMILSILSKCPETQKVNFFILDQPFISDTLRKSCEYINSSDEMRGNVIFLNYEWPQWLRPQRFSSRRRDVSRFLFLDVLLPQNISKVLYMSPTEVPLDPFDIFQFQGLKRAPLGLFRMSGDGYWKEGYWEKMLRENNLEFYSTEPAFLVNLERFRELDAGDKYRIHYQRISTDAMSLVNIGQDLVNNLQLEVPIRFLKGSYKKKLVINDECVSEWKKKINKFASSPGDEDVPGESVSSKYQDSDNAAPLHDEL", "experiment": "split reporter"}},
  "data": [
    {"binder": "Lhs1p (natural protein) AVLGVDYGQQNIKAIVVSPQAPLELVLTPEAKRKEISGLSIKRLPGYGKDDPNGIERIYGSAVGSLATRFPQNTLLHLKPLLGKSLEDETTVTLYSKQHPGLEMVSTNRSTIAFLVDNVEYPLEELVAMNVQEIANRANSLLKDRDARTEDFVNKMSFTIPDFFDQHQRKALLDASSITTGIEETYLVSEGMSVAVNFVLKQRQFPPGEQQHYIVYDMGSGSIKASMFSILQPEDTTQPVTIEFEGYGYNPHLGGAKFTMDIGSLIENKFLETHPAIRTDELHANPKALAKINQAAEKAKLILSANSEASINIESLINDIDFRTSITRQEFEEFIADSLLDIVKPINDAVTKQFGGYGTNLPEINGVILAGGSSRIPIVQDQLIKLVSEEKVLRNVNADESAVNGVVMRGIKLSNSFKTKPLNVVDRSVNTYSFKLSNESELYDVFTRGSAYPNKTSILTNTTDSIPNNFTIDLFENGKLFETITVNSGAIKNSYSSDKCSSGVAYNITFDLSSDRLFSIQEVNCICQSENDIGNSKQIKNKGSRLAFTSEDVEIKRLSPSERSRLHEHIKLLDKQDKERFQFQENLNVLESNLYDARNLLMDDEVMQNGPKSQVEELSEMVKVYLDWLEDASFDTDPEDIVSRIREIGILKKKIELYMDSAKEPLNSQQFKGMLEEGHKLLQAIETHKNTVEEFLSQFETEFADTIDNVREEFKKIKQPAYVSKALSTWEETLTSFKNSISEIEKFLAKNLFGEDLREHLFEIKLQFDMYRTKLEEKLRLIKSGDESRLNEIKKLHLRNFRLQKRKEEKLKRKLEQEKSRNNNETESTVINSADDKTTIVNDKTTESNPSSEEDILHDEL", "values": [
      {"measurement": "normalized interacting score", "setting": "Pdi1p", "result": "> 40", "unit": "%"},
      {"measurement": "normalized interacting score", "setting": "Kre5p", "result": "> 40", "unit": "%"}
    ]}
  ]
}
